Legend:
Experiment in all cases: cell-based or functional assay
[1] = biological target: T1, activin A (human, UniProt P08476 311-426)
T1 sequence (looked up): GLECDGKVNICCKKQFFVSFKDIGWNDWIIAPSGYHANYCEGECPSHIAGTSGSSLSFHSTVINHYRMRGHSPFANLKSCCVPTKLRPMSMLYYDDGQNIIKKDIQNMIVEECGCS

[2] = biological target: T2, activin B (UniProt P09529 293-407)
T2 sequence (looked up): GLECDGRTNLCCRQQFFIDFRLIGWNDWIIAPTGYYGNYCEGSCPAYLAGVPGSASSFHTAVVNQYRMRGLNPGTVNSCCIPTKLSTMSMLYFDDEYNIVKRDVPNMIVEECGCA

[3] = biological target: T3, GDF-11 (UniProt O95390 299-407)
T3 sequence (looked up): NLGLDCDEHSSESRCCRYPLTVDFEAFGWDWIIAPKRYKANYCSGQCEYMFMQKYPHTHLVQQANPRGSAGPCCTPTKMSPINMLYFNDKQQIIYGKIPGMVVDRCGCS

[4] = biological target: T4, BMP-9 (UniProt Q9UK05 320-429)
T4 sequence (looked up): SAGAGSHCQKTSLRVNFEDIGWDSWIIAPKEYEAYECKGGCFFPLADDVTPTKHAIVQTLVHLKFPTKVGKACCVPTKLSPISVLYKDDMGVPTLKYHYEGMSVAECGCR

[5] = biological target: T5, BMP-10 (UniProt O95393 317-424)
T5 sequence (looked up): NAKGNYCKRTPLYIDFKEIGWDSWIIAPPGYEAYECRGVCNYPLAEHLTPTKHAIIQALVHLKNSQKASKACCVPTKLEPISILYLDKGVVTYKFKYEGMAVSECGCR

[6] = biological target: T6, GDF-8 (UniProt O14793 267-375)
T6 sequence (looked up): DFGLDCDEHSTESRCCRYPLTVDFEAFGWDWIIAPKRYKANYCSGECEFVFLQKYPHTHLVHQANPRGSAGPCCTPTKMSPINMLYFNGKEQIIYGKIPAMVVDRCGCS

**Q.** Which results are given for “P754 (hActRIIB T69Q, 14 aa linker, IgG1-DL) (Fc fusion)”?
**A.** IC50, TGFβ-reporter HEK293 cell-based neutralization assay [1]: 1.5 nM; IC50, TGFβ-reporter HEK293 cell-based neutralization assay [2]: 2.1 nM; IC50, TGFβ-reporter HEK293 cell-based neutralization assay [3]: 1.6 nM; IC50, BMP-reporter HepG2 cell-based neutralization assay [4]: 3.5 nM; IC50, BMP-reporter HepG2 cell-based neutralization assay [5]: 2.5 nM

**Q.** For “P739 (hActRIIB G27E, 14 aa linker, IgG1-DL) (Fc fusion)”, which IC50, TGFβ-reporter HEK293 cell-based neutralization assay [1] is on record?
**A.** The IC50, TGFβ-reporter HEK293 cell-based neutralization assay was 3.5 nM.

**Q.** And the IC50, TGFβ-reporter HEK293 cell-based neutralization assay [2]?
**A.** Its IC50, TGFβ-reporter HEK293 cell-based neutralization assay is 6 nM.

**Q.** What about the IC50, TGFβ-reporter HEK293 cell-based neutralization assay [6] of the same molecule?
**A.** The IC50, TGFβ-reporter HEK293 cell-based neutralization assay was 2 nM.

**Q.** What about the IC50, TGFβ-reporter HEK293 cell-based neutralization assay [3] of the same molecule?
**A.** The IC50, TGFβ-reporter HEK293 cell-based neutralization assay was 2.1 nM.

**Q.** What about the IC50, BMP-reporter HepG2 cell-based neutralization assay [4] of the same molecule?
**A.** Its IC50, BMP-reporter HepG2 cell-based neutralization assay is 1.1 nM.

**Q.** What about the fold increase in neutralization potency relative to P75 [4] of the same molecule?
**A.** The fold increase in neutralization potency relative to P75 was 2 fold.

**Q.** And the IC50, BMP-reporter HepG2 cell-based neutralization assay [5]?
**A.** Its IC50, BMP-reporter HepG2 cell-based neutralization assay is 4 nM.

**Q.** How did the IC50, TGFβ-reporter HEK293 cell-based neutralization assay [1] turn out when “P753 (hActRIIB T69H, 14 aa linker, IgG1-DL) (Fc fusion)” was run?
**A.** The IC50, TGFβ-reporter HEK293 cell-based neutralization assay was 1.6 nM.

**Q.** What about the fold increase in neutralization potency relative to P75 [1] of the same molecule?
**A.** Its fold increase in neutralization potency relative to P75 is 1.5 fold.

**Q.** And the IC50, TGFβ-reporter HEK293 cell-based neutralization assay [2]?
**A.** Its IC50, TGFβ-reporter HEK293 cell-based neutralization assay is 2.4 nM.

**Q.** What about the IC50, TGFβ-reporter HEK293 cell-based neutralization assay [6] of the same molecule?
**A.** Its IC50, TGFβ-reporter HEK293 cell-based neutralization assay is 1.4 nM.

**Q.** What about the IC50, TGFβ-reporter HEK293 cell-based neutralization assay [3] of the same molecule?
**A.** Its IC50, TGFβ-reporter HEK293 cell-based neutralization assay is 1.5 nM.

**Q.** What about the IC50, BMP-reporter HepG2 cell-based neutralization assay [4] of the same molecule?
**A.** The IC50, BMP-reporter HepG2 cell-based neutralization assay was 2.1 nM.

**Q.** And the IC50, BMP-reporter HepG2 cell-based neutralization assay [5]?
**A.** The IC50, BMP-reporter HepG2 cell-based neutralization assay was 2.9 nM.

B1: P1375 (hActRIIB L33W, 19 aa linker, IgG1 YTE-DL) (Fc fusion)
chain: ETRECIYYNANWELERTNQSGLERCEGEQDKRWHCYASWRNSSGTIELVKKGCWLDDFNCYDRQECVATEENPQVYFCCCEGNFCNERFTHLPEAGGPEVTYEPPPTGGGGSGGGGSGGGGSGGGGTHTCPPCPAPELLGGPSVFLFPPKPKDTLYITREPEVTCVVVDVSHEDPEVKFNWYVDGVEVHNAKTKPREEQYNSTYRVVSVLTVLHQDWLNGKEYKCKVSNKALPAPIEKTISKAKGQPREPQVYTLPPSRDELTKNQVSLTCLVKGFYPSDIAVEWESNGQPENNYKTTPPVLDSDGSFFLYSKLTVDKSRWQQGNVFSCSVMHEALHNHYTQKSLSLSPG
**Q.** What does the source list for B1?
**A.** IC50, TGFβ-reporter HEK293 cell-based neutralization assay [1]: 0.53 nM; IC50, TGFβ-reporter HEK293 cell-based neutralization assay [2]: 2 nM; IC50, TGFβ-reporter HEK293 cell-based neutralization assay [6]: 0.33 nM; IC50, TGFβ-reporter HEK293 cell-based neutralization assay [3]: 0.39 nM; IC50, BMP-reporter HepG2 cell-based neutralization assay [4]: > 1000 nM; IC50, BMP-reporter HepG2 cell-based neutralization assay [5]: > 100 nM

B2: P1372 (hActRIIB L33W, 14 aa linker, IgG1 YTE-DL) (Fc fusion)
chain: ETRECIYYNANWELERTNQSGLERCEGEQDKRWHCYASWRNSSGTIELVKKGCWLDDFNCYDRQECVATEENPQVYFCCCEGNFCNERFTHLPEAGGPEVTYEPPPTGGGGSGGGGSGGGGTHTCPPCPAPELLGGPSVFLFPPKPKDTLYITREPEVTCVVVDVSHEDPEVKFNWYVDGVEVHNAKTKPREEQYNSTYRVVSVLTVLHQDWLNGKEYKCKVSNKALPAPIEKTISKAKGQPREPQVYTLPPSRDELTKNQVSLTCLVKGFYPSDIAVEWESNGQPENNYKTTPPVLDSDGSFFLYSKLTVDKSRWQQGNVFSCSVMHEALHNHYTQKSLSLSPG
**Q.** What does the source list for B2?
**A.** IC50, TGFβ-reporter HEK293 cell-based neutralization assay [1]: 0.56 nM; IC50, TGFβ-reporter HEK293 cell-based neutralization assay [2]: 2 nM; IC50, TGFβ-reporter HEK293 cell-based neutralization assay [6]: 0.18 nM; IC50, TGFβ-reporter HEK293 cell-based neutralization assay [3]: 0.53 nM; IC50, BMP-reporter HepG2 cell-based neutralization assay [4]: > 1000 nM; IC50, BMP-reporter HepG2 cell-based neutralization assay [5]: > 100 nM

Source: patent US20260092096A1 (35PHARMA, published 2026)
